Results as given in patent US10633429B2, “Human antibody κ type light chain complex-containing composition and method for producing same” (JAPAN SCIENCE AND TECHNOLOGY AGENCY, priority 2013, dated 2020).

Legend:
[1] = system: A549 cell line (human alveolar epithelial cancer cell line); experiment: Cytotoxicity assay (WST assay), A549 cell line; type: cell-based; conditions: Example 6, 24 h, light chain not bound with copper ions set to 100%
Protocol: (§1) The cytotoxicity of each complex-containing composition to cancer cells was tested using cancer cell lines. As the cancer cell lines, A549 cell line (human alveolar epithelial cancer cell line), ES-2 cell line (human ovarian cancer cell line), MOLT-4 cell line (human acute lymphoblastic leukemia T cell line), BxPC-3 cell line (human pancreatic adenocarcinoma cell line), SNU-1 cell line (human metastatic gastric cancer cell line), and PANC-1 cell line (human pancreatic cancer cell line) were used.
(§2) All of these cell lines were purchased from ATCC (American Type Culture Collection). Here, the A549 cell line was cultured using a 10% FCS (fetal calf serum)-containing F-12K culture medium by a general method, the ES-2 cell line was cultured using a 10% FCS-containing McCoy's 5A culture medium by a general method, each of the MOLT-4 cell line, SNU-1 cell line, and BxPC-3 cell line was cultured using a 10% FCS-containing RPMI-1640 culture medium by a general method, the PANC-1 cell line was cultured using a 10% FCS-containing DMEM culture medium by a general method, and the WI-38 cell line was cultured using a 10% FCS-containing EMEM culture medium by a general method.
(§3) First, after being recovered by thawing the frozen cancer cell lines, the recovered cancer cell lines were seeded in a 96-well plate by 100 μL to be 5×10^3 cells/well (the number of seeds was appropriately adjusted by cell species). After culturing was carried out at 37° C. for 24 hours, a culture medium to be added to the 96-well plate was removed by decantation, and then each complex-containing composition prepared at a concentration of about 1 mg/mL was added to each well by 100 μL. After culturing was carried out for 24 hours or 48 hours from the addition of the complex-containing composition (after cells are planted and cultivated for 48 hours or 72 hours), a WST-1 reagent (manufactured by Roche Inc.) was added to each well by 10 μL and incubated for 1, 1.5, and 2 hours to form a formazan dye, and then the absorbance (Abs at 450 nm) of the formazan dye was measured (WST assay). As a control, a human antibody κ type light chain not bound to metal ions or PBS was added instead of the complex-containing composition and cultured for 24 hours or 48 hours, and then WST assay was carried out. Based on the results of the obtained absorbance, the cell survival rate of the well added with the human antibody κ type light chain not bound to metal ions or the well added with the PBS was set to 100%, and the cell survival rate of each well was determined, so as to evaluate the cytotoxicity of the added complex-containing composition.

[2] = system: MOLT-4 cell line (human acute lymphoblastic leukemia T cell line); experiment: Cytotoxicity assay (WST assay), MOLT-4 cell line; type: cell-based; conditions: Example 6, 24 h, light chain not bound with copper ions set to 100%
Protocol: as §1, §2, §3
Meanwhile, in the case of the MOLT-4 cell line, from the time cells were seeded in the 96-well plate, each complex-containing composition prepared at a concentration of about 1 mg/mL was added to each well by 100 μL and cultured for 24 hours or 48 hours, and then WST assay was carried out.

[3] = system: ES-2 cell line (human ovarian cancer cell line); experiment: Cytotoxicity assay (WST assay), ES-2 cell line; type: cell-based; conditions: Example 6, 24 h, light chain not bound with copper ions set to 100%
Protocol: as §1, §2, §3

[4] = system: SNU-1 cell line (human metastatic gastric cancer cell line); experiment: Cytotoxicity assay (WST assay), SNU-1 cell line; type: cell-based; conditions: 24 h, light chain not bound with copper ions set to 100%
Protocol: as §1
(§4) All of these cell lines were purchased from ATCC (American Type Culture Collection). […]
(§5) First, after being recovered by thawing the frozen cancer cell lines, the recovered cancer cell lines were seeded in a 96-well plate by 100 μL to be 5×10^3 cells/well (the number of seeds was appropriately adjusted by cell species). […] After culturing was carried out for 24 hours or 48 hours from the addition of the complex-containing composition (after cells are planted and cultivated for 48 hours or 72 hours), a WST-1 reagent (manufactured by Roche Inc.) was added to each well by 10 μL and incubated for 1, 1.5, and 2 hours to form a formazan dye, and then the absorbance (Abs at 450 nm) of the formazan dye was measured (WST assay). […]

[5] = system: BxPC-3 cell line (human pancreatic adenocarcinoma cell line); experiment: Cytotoxicity assay (WST assay), BxPC-3 cell line; type: cell-based; conditions: Example 6; copper-bound light chain 40 μM; 24 h; light chain not bound with copper ions set to 100%
Protocol: as §1, §4, §5

[6] = system: B-16 cell line (mouse melanoma-derived cell) subcutaneous tumor; experiment: Cytotoxicity assay in tumor-bearing mouse model, B-16 cell line transplanted; type: in vivo; conditions: B-16-transplanted mouse; 32.3 μg per mouse injected into subcutaneous tumor, total of 10 times from 4th day; n=2
Protocol: [Cytotoxicity Assay in Tumor-Bearing Mouse Model]
The cytotoxicity of each complex-containing composition to cancer cells in a tumor-bearing mouse model was tested using tumor-bearing mouse models.
First, the ES-2 cell line (human ovarian cancer-derived cell) or the B-16 cell line (mouse melanoma-derived cell) was subcutaneously transplanted into a mouse to a concentration of 2.5×10^6 cells/mouse. The complex-containing composition was administered against tumors subcutaneously established in the mouse from the 4th day after cancer cell transplantation. The administration of the complex-containing composition was carried out by directly injecting the complex-containing composition into a plurality of sites in the subcutaneous tumor from the outside of the mouse body using a syringe. […]
The volume of the subcutaneous tumor over time was measured from the outside of the mouse body, the volume of the subcutaneous tumor at the 1st day after cancer cell transplantation (next day after transplantation) was set to 1, and the relative tumor volume was determined, so as to evaluate the cytotoxicity of the complex-containing composition to cancer cells in the tumor-bearing mouse model. […]

[7] = copper-bound light chain 12.3 μM

| Molecule | Relative cell survival rate ([1]; copper-bound light chain 40 μM) | Relative cell survival rate ([2]; copper-bound light chain 40 μM) | Relative cell survival rate ([3]; copper-bound light chain 40 μM) | Relative cell survival rate ([3]; copper-bound light chain 20 μM) | further results |
| --- | --- | --- | --- | --- | --- |
| #7VL: mutant of light chain #7, full-length SEQ ID NO. 4; tested bound with copper ions (protein, bound copper ions; human; Human antibody kappa light chain (#7 VL)) light: EIVMTQSPLSLPVTPGEPASISCRSSQSLLHSNTRNYLDWYLQKPGQSPQLLIYLGSNRASGVPDRFSGSGSGTDFTLKISRVEAEDVGVYYCMQGLQTPRTFGQGTKVEIKRTVAAPSVFIFPPSDEQLKSGTASVVCLLNNFYPREAKVQWKVDNALQSGNSQESVTEQDSKDSTYSLSSTLTLSKADYEKHKLYACEVTHQGLSSPVTKSFNRGEC | 45.9% | 29.4% | 35.7% |  |  |
| #7VL(RL): mutant of light chain #7, full-length SEQ ID NO. 8; tested bound with copper ions (protein, bound copper ions; human; Human antibody kappa light chain (#7 VL(RL))) light: EIVMTQSPLSLPVTPGEPASISCRSSQSLLHSNTRNYLDWYLQKPGQSPQLLIYLGSNRASGVPDRFSGSGSGTDFTLKISRVEAEDVGVYYCMQGLQTPRTFGQGTRLEIKRTVAAPSVFIFPPSDEQLKSGTASVVCLLNNFYPREAKVQWKVDNALQSGNSQESVTEQDSKDSTYSLSSTLTLSKADYEKHKLYACEVTHQGLSSPVTKSFNRGEC | 48.0% | 32.4% | 49.4% |  |  |
| #7RL I: mutant of light chain #7, full-length SEQ ID NO. 10; tested bound with copper ions (protein, bound copper ions; human; Human antibody kappa light chain (#7 RLI)) light: EIVMTQSPLSLPVTPGEPASISCRSSQSLLHSNTRNYLDWYLQKPGQSPQLLIYLGSNRASGVPDRFSGSGSGTDFTLKISRVEAEDVGVYYCMQGLQTPITFGQGTRLEIKRTVAAPSVFIFPPSDEQLKSGTASVVCLLNNFYPREAKVQWKVDNALQSGNSQESVTEQDSKDSTYSLSSTLTLSKADYEKHKLYACEVTHQGLSSPVTKSFNRGEC | 41.9% |  |  |  | Relative cell survival rate ([4]; Example 6, copper-bound light chain 40 μM): 52.2%; Relative cell survival rate [5]: 77.6% |
| #7VL(I): mutant of light chain #7, full-length SEQ ID NO. 6; tested bound with copper ions (protein, bound copper ions; human; Human antibody kappa light chain (#7 VL(I))) light: EIVMTQSPLSLPVTPGEPASISCRSSQSLLHSNTRNYLDWYLQKPGQSPQLLIYLGSNRASGVPDRFSGSGSGTDFTLKISRVEAEDVGVYYCMQGLQTPITFGQGTKVEIKRTVAAPSVFIFPPSDEQLKSGTASVVCLLNNFYPREAKVQWKVDNALQSGNSQESVTEQDSKDSTYSLSSTLTLSKADYEKHKLYACEVTHQGLSSPVTKSFNRGEC | 79.0% | 58.7% | 53.7% |  |  |
| #4: human antibody κ type light chain, SEQ ID NO. 12; tested bound with copper ions (protein, bound copper ions; human; Human antibody kappa light chain (#4)) light: DVVMTQTPLSLSVTPGEPASISCRSTQSLLDSDGVNPSFDWYVQKPGQSPQLLIHRGFYRASGVPDRFSGSGSGTDFTLRISRVEAEDVGVYYCMQRIEFPLTFGGGTKVELKRTVAAPSVFIFPPSDEQLKSGTASVVCLLNNFYPREAKVQWKVDNALQSGNSQESVTEQDSKDSTYSLSSTLTLSKADYEKHKLYACEVTHQGLSSPVTKSFNRGEC |  |  |  | 50.3% | Relative cell survival rate ([4]; Example 7, Table 5, copper-bound light chain 39.4 μM): 29.5%; Relative cell survival rate ([1]; copper-bound light chain 25.2 μM): 81.8%; Relative cell survival rate ([1]; copper-bound light chain 34.9 μM): 79.1%; Relative cell survival rate ([2]; copper-bound light chain 4 μM): 69.6%; Relative cell survival rate ([2]; copper-bound light chain 20 μM): 42.3%; Relative cell survival rate ([2]; copper-bound light chain 40.4 μM): 24.3%; Relative tumor volume at 15 days after transplantation, compared to control group (PBS) [6]: about ⅓ |
| #11: human antibody κ type light chain, SEQ ID NO. 14; tested bound with copper ions (protein, bound copper ions; human; Human antibody kappa light chain (#11)) light: DIVMTQTPLSLSVTPGQPASISCKSSQSLLHSDGKTYLYWYLQKPGQSPQLLLYEVSSRFSGVPDRFSGSGSGTDFTLKISRVEAEDVGVYYCMQGIHLPYTFGQGTKLEIKRTVAAPSVFIFPPSDEQLKSGTASVVCLLNNFYPREAKVQWKVDNALQSGNSQESVTEQDSKDSTYSLSSTLTLSKADYEKHKLYACEVTHQGLSSPVTKSFNRGEC |  |  |  | 23.8% | Relative cell survival rate [1, 7]: 73.2%; Relative cell survival rate ([1]; copper-bound light chain 20 μM): 54.5%; Relative cell survival rate [3, 7]: 58.5% |
